Results on one substance are retold here after patent US20040053425A1.

The experiment deals with human prostate-specific antigen (PSA) (human) (UniProt P07288). Put plainly: cell-based or functional assay.
UniProt P07288, sequence (P07288 25-261 limits assumed): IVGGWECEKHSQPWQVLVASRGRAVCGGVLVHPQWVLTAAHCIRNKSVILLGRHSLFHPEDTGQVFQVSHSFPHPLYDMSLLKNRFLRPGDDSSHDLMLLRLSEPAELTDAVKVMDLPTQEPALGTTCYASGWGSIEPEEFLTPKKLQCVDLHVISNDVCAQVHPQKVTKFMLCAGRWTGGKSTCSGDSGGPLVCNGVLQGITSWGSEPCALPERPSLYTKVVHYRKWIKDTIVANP

Substance “anti-PSA monoclonal antibody clone ER-PR8” returned a decrease in PSA enzymatic activity of 46%.
